{
  "source": "IntAct's records for PubMed 25502805",
  "parents": {"B1": {"name": "DNA mismatch repair protein Mlh1 (Homo sapiens), P40692 (parent)", "chain": "MSFVAGVIRRLDETVVNRIAAGEVIQRPANAIKEMIENCLDAKSTSIQVIVKEGGLKLIQIQDNGTGIRKEDLDIVCERFTTSKLQSFEDLASISTYGFRGEALASISHVAHVTITTKTADGKCAYRASYSDGKLKAPPKPCAGNQGTQITVEDLFYNIATRRKALKNPSEEYGKILEVVGRYSVHNAGISFSVKKQGETVADVRTLPNASTVDNIRSIFGNAVSRELIEIGCEDKTLAFKMNGYISNANYSVKKCIFLLFINHRLVESTSLRKAIETVYAAYLPKNTHPFLYLSLEISPQNVDVNVHPTKHEVHFLHEESILERVQQHIESKLLGSNSSRMYFTQTLLPGLAGPSGEMVKSTTSLTSSSTSGSSDKVYAHQMVRTDSREQKLDAFLQPLSKPLSSQPQAIVTEDKTDISSGRARQQDEEMLELPAPAEVAAKNQSLEGDTTKGTSEMSEKRGPTSSNPRKRHREDSDVEMVEDDSRKEMTAACTPRRRIINLTSVLSLQEEINEQGHEVLREMLHNHSFVGCVNPQWALAQHQTKLYLLNTTKLSEELFYQILIYDFANFGVLRLSEPAPLFDLAMLALDSPESGWTEEDGPKEGLAEYIVEFLKKKAEMLADYFSLEIDEEGNLIGLPLLIDNYVPPLEGLPIFILRLATEVNWDEEKECFESLSKECAMFYSIRKQYISEESTLSGQQSEVPGSIPNSWKWTVEHIVYKALRSHILPPKHFTEDGNILQLANLPDLYKVFERC", "partner": "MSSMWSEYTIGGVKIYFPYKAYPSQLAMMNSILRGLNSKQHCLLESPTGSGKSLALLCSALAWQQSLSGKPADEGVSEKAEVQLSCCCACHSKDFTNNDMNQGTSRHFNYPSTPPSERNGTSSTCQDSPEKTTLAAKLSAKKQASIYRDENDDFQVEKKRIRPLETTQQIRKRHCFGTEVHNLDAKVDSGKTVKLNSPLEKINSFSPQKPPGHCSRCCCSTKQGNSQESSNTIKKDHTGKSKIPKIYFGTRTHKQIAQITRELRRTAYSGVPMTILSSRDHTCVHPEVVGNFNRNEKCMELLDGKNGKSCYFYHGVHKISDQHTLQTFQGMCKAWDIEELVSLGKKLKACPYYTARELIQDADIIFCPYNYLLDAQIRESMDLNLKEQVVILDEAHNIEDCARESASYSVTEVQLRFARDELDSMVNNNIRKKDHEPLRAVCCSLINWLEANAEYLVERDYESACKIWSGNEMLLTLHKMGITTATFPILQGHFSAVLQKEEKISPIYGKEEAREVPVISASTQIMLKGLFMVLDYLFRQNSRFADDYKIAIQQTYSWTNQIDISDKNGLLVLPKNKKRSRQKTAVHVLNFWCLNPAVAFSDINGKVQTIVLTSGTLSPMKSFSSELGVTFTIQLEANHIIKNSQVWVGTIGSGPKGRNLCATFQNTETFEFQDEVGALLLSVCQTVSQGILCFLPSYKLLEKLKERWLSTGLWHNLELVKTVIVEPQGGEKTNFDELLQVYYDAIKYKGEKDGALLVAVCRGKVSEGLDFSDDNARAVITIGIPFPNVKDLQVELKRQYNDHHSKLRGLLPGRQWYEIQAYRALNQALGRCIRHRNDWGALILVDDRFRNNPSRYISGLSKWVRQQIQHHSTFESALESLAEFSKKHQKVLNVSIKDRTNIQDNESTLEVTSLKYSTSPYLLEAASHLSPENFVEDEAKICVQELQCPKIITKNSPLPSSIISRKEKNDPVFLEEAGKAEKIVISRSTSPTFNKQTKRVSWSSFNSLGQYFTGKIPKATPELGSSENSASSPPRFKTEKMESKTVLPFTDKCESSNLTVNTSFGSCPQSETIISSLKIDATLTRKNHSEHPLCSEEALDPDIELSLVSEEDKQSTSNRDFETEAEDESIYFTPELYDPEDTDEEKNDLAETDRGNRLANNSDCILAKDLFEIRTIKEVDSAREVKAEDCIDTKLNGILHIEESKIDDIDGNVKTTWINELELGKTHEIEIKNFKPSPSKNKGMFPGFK"}, "B2": {"name": "DNA mismatch repair protein Mlh1 (Homo sapiens), P40692 (parent)", "chain": "B1 chain"}, "B3": {"name": "Kelch-like protein 3 (Homo sapiens), Q9UH77 (parent)", "chain": "MEGESVKLSSQTLIQAGDDEKNQRTITVNPAHMGKAFKVMNELRSKQLLCDVMIVAEDVEIEAHRVVLAACSPYFCAMFTGDMSESKAKKIEIKDVDGQTLSKLIDYIYTAEIEVTEENVQVLLPAASLLQLMDVRQNCCDFLQSQLHPTNCLGIRAFADVHTCTDLLQQANAYAEQHFPEVMLGEEFLSLSLDQVCSLISSDKLTVSSEEKVFEAVISWINYEKETRLEHMAKLMEHVRLPLLPRDYLVQTVEEEALIKNNNTCKDFLIEAMKYHLLPLDQRLLIKNPRTKPRTPVSLPKVMIVVGGQAPKAIRSVECYDFEEDRWDQIAELPSRRCRAGVVFMAGHVYAVGGFNGSLRVRTVDVYDGVKDQWTSIASMQERRSTLGAAVLNDLLYAVGGFDGSTGLASVEAYSYKTNEWFFVAPMNTRRSSVGVGVVEGKLYAVGGYDGASRQCLSTVEQYNPATNEWIYVADMSTRRSGAGVGVLSGQLYATGGHDGPLVRKSVEVYDPGTNTWKQVADMNMCRRNAGVCAVNGLLYVVGGDDGSCNLASVEYYNPVTDKWTLLPTNMSTGRSYAGVAVIHKSL"}, "B4": {"name": "Interleukin-1 receptor-associated kinase 4 (Homo sapiens), Q9NWZ3 (parent)", "chain": "MNKPITPSTYVRCLNVGLIRKLSDFIDPQEGWKKLAVAIKKPSGDDRYNQFHIRRFEALLQTGKSPTSELLFDWGTTNCTVGDLVDLLIQNEFFAPASLLLPDAVPKTANTLPSKEAITVQQKQMPFCDKDRTLMTPVQNLEQSYMPPDSSSPENKSLEVSDTRFHSFSFYELKNVTNNFDERPISVGGNKMGEGGFGVVYKGYVNNTTVAVKKLAAMVDITTEELKQQFDQEIKVMAKCQHENLVELLGFSSDGDDLCLVYVYMPNGSLLDRLSCLDGTPPLSWHMRCKIAQGAANGINFLHENHHIHRDIKSANILLDEAFTAKISDFGLARASEKFAQTVMTSRIVGTTAYMAPEALRGEITPKSDIYSFGVVLLEIITGLPAVDEHREPQLLLDIKEEIEDEEKTIEDYIDKKMNDADSTSVEAMYSVASQCLHEKKNKRPDIKKVQQLLQEMTAS"}, "B5": {"name": "DNA mismatch repair protein Mlh1 (Homo sapiens), P40692 (parent)", "chain": "B1 chain", "partner": "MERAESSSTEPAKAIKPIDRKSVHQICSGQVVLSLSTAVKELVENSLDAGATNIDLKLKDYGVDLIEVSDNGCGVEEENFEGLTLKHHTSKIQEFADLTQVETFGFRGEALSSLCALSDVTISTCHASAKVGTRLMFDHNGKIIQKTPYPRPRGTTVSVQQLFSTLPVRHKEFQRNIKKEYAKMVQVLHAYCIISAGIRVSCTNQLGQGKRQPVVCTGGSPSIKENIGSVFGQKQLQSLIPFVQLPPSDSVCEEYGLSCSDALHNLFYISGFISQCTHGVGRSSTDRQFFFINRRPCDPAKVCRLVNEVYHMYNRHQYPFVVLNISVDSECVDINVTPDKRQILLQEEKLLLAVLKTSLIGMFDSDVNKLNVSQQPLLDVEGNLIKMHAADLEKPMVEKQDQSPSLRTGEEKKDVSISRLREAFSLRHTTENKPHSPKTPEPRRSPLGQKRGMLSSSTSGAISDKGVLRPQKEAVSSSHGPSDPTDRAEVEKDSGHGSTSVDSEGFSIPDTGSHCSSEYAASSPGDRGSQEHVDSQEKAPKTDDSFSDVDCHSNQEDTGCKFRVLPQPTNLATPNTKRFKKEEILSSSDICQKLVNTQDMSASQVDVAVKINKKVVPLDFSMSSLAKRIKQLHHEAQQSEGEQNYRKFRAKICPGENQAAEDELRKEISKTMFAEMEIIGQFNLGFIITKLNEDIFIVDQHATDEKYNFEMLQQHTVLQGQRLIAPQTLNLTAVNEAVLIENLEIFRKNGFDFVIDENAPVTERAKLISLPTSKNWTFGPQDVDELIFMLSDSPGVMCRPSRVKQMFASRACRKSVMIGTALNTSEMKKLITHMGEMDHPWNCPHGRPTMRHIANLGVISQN"}, "B6": {"name": "pre-mRNA splicing regulator USH1G (Homo sapiens), Q495M9 (parent)", "chain": "MNDQYHRAARDGYLELLKEATRKELNAPDEDGMTPTLWAAYHGNLESLRLIVSRGGDPDKCDIWGNTPLHLAASNGHLHCLSFLVSFGANIWCLDNDYHTPLDMAAMKGHMECVRYLDSIAAKQSSLNPKLVGKLKDKAFREAERRIRECAKLQRRHHERMERRYRRELAERSDTLSFSSLTSSTLSRRLQHLALGSHLPYSQATLHGTARGKTKMQKKLERRKQGGEGTFKVSEDGRKSARSLSGLQLGSDVMFVRQGTYANPKEWGRAPLRDMFLSDEDSVSRATLAAEPAHSEVSTDSGHDSLFTRPGLGTMVFRRNYLSSGLHGLGREDGGLDGVGAPRGRLQSSPSLDDDSLGSANSLQDRSCGEELPWDELDLGLDEDLEPETSPLETFLASLHMEDFAALLRQEKIDLEALMLCSDLDLRSISVPLGPRKKILGAVRRRRQAMERPPALEDTEL", "partner": "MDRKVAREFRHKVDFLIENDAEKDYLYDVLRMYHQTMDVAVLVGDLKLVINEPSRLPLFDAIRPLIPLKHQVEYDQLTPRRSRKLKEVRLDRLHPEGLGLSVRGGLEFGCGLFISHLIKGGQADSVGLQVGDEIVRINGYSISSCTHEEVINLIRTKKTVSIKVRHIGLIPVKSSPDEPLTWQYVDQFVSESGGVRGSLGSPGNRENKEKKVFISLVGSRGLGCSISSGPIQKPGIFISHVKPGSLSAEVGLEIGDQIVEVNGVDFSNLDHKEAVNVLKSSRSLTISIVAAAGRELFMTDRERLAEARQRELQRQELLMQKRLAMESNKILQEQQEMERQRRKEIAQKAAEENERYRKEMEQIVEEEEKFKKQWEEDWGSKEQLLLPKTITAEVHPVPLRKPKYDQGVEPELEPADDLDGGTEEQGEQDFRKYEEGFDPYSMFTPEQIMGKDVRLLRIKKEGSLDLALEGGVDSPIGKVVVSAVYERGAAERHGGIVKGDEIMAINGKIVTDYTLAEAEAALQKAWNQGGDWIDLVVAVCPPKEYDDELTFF"}},
  "data": [
    {"variants_of": "B1", "conditions": "with fancj_human BRIP1, Q9BX63", "values": [
      {"variant": "I107R", "effect of a mutation on the interaction": "with no effect"}
    ]},
    {"variants_of": "B2", "conditions": "with hsp7c_human HSPA8, P11142", "values": [
      {"variant": "I107R", "effect of a mutation on the interaction": "increasing interaction strength"}
    ]},
    {"variants_of": "B3", "conditions": "with cul3_human CUL3, Q13618", "values": [
      {"variant": "R228G", "effect of a mutation on the interaction": "disrupting interaction strength"},
      {"variant": "C164F", "effect of a mutation on the interaction": "disrupting interaction strength"}
    ]},
    {"variants_of": "B4", "conditions": "with myd88_human MYD88, Q99836", "values": [
      {"variant": "G298D", "effect of a mutation on the interaction": "disrupting interaction strength"},
      {"variant": "A428T", "effect of a mutation on the interaction": "with no effect"},
      {"variant": "R12C", "effect of a mutation on the interaction": "disrupting interaction strength"}
    ]},
    {"variants_of": "B5", "conditions": "with pms2_human PMS2, P54278", "values": [
      {"variant": "I107R", "effect of a mutation on the interaction": "disrupting interaction strength"}
    ]},
    {"variants_of": "B6", "conditions": "with ush1c_human USH1C", "values": [
      {"variant": "L48P", "effect of a mutation on the interaction": "with no effect"},
      {"variant": "L16V", "effect of a mutation on the interaction": "with no effect"}
    ]}
  ]
}
